Results: patent US10738094B2, “Peptides and combination of peptides for use in immunotherapy against ovarian cancer and other cancers” (immatics biotechnologies GmbH, priority 2015, dated 2020)

Target: HLA-A*02:01 (Homo sapiens, UniProt P04439, D140Y/D185E/D98H/E176V/E277Q/G131W/G231S/I119V/I121R/I166T/I218V/L300P/L318F/N151K/N90K/P208A/P217A/Q86G/Q94H/R138H/R169H/T345S)
Assay: MHC binding assay (UV-ligand exchange, beta2m ELISA)
Conditions: binding to HLA-A*02:01 ranged by peptide exchange yield (UV-ligand exchange, β2m ELISA)
Source text: Candidate peptides for T cell based therapies according to the present invention were further tested for their MHC binding capacity (affinity). The individual peptide-MHC complexes were produced by UV-ligand exchange, where a UV-sensitive peptide is cleaved upon UV-irradiation, and exchanged with the peptide of interest as analyzed. Only peptide candidates that can effectively bind and stabilize the peptide-receptive MHC molecules prevent dissociation of the MHC complexes. To determine the yield of the exchange reaction, an ELISA was performed based on the detection of the light chain (β2m) of stabilized MHC complexes. The assay was performed as generally described in Rodenko et al. (Rodenko et al., 2006).
96 well MAXISorp plates (NUNC) were coated over night with 2 ug/ml streptavidin in PBS at room temperature, washed 4× and blocked for 1 h at 37° C. in 2% BSA containing blocking buffer. […] Peptide-MHC monomers of the UV-exchange reaction were diluted 100 fold in blocking buffer. Samples were incubated for 1 h at 37° C., washed four times, incubated with 2 ug/ml HRP conjugated anti-β2m for 1 h at 37° C., washed again and detected with TMB solution that is stopped with […]. Absorption was measured at 450 nm. Candidate peptides that show a high exchange yield (preferably higher than 50%, most preferred higher than 75%) are generally preferred for a generation and production of antibodies or fragments thereof, and/or T cell receptors or fragments thereof, as they show sufficient avidity to the MHC molecules and prevent dissociation of the MHC complexes.

Row | Substance | Peptide exchange
1 | 80 (FLYDNLVESL; listed as Homo sapiens) [compound 80] | “++” (≥20% = ++)
2 | 81 (FLFSQLQYL; listed as Homo sapiens) [compound 81] | “++” (≥20% = ++)
3 | 82 (FLSSVTYNL; listed as Homo sapiens) [compound 82] | “+++” (≥50 = +++)
4 | 84 (VTFGEKLLGV; listed as Homo sapiens) [compound 84] | “++” (≥20% = ++)
5 | 85 (KMSELRVTL; listed as Homo sapiens) [compound 85] | “+++” (≥50 = +++)
6 | 87 (ALPEAPAPLLPHIT; listed as Homo sapiens) [compound 87] | “++” (≥20% = ++)
7 | 90 (TLLQIIETV; listed as Homo sapiens) [compound 90] | “+++” (≥50 = +++)
8 | 91 (IMQDFPAEIFL; listed as Homo sapiens) [compound 91] | “++++” (≥75% = ++++)
9 | 92 (YLIPFTGIVGL; listed as Homo sapiens) [compound 92] | “++” (≥20% = ++)
10 | 93 (LLQAIKLYL; listed as Homo sapiens) [compound 93] | “++” (≥20% = ++)
11 | 95 (SVIPQIQKV; listed as Homo sapiens) [compound 95] | “+++” (≥50 = +++)
12 | 96 (YIFTDNPAAV; listed as Homo sapiens) [compound 96] | “+++” (≥50 = +++)
13 | 98 (LIIDQADIYL; listed as Homo sapiens) [compound 98] | “+++” (≥50 = +++)
14 | 104 (STMEQNFLL; listed as Homo sapiens) [compound 104] | “++++” (≥75% = ++++)
15 | 107 (FLQPVDDTQHL; listed as Homo sapiens) [compound 107] | “+++” (≥50 = +++)
16 | 109 (IILSILEQA; listed as Homo sapiens) [compound 109] | “++++” (≥75% = ++++)
17 | 110 (FLSQVDFEL; listed as Homo sapiens) [compound 110] | “+++” (≥50 = +++)
18 | 111 (YVWGFYPAEV; listed as Homo sapiens) [compound 111] | “+++” (≥50 = +++)
19 | 114 (SLVGEPILQNV; listed as Homo sapiens) [compound 114] | “++” (≥20% = ++)
20 | 115 (AIAGAGILYGV; listed as Homo sapiens) [compound 115] | “++” (≥20% = ++)
21 | 117 (ILPDGEDFLAV; listed as Homo sapiens) [compound 117] | “+++” (≥50 = +++)
22 | 120 (ALLGIPLTLV; listed as Homo sapiens) [compound 120] | “+++” (≥50 = +++)
23 | 122 (FLLAEDDIYL; listed as Homo sapiens) [compound 122] | “+++” (≥50 = +++)

Row | Substance | Peptide exchange
24 | 124 (ALYETELADA; listed as Homo sapiens) [compound 124] | “++” (≥20% = ++)
25 | 126 (VLAYFLPEA; listed as Homo sapiens) [compound 126] | “++++” (≥75% = ++++)
26 | 127 (KIGDEPPKV; listed as Homo sapiens) [compound 127] | “++” (≥20% = ++)
27 | 128 (YLFDDPLSAV; listed as Homo sapiens) [compound 128] | “++” (≥20% = ++)
28 | 129 (GLLDGGVDILL; listed as Homo sapiens) [compound 129] | “+++” (≥50 = +++)
29 | 130 (FLWNGEDSALL; listed as Homo sapiens) [compound 130] | “+++” (≥50 = +++)
30 | 131 (FVPPVTVFPSL; listed as Homo sapiens) [compound 131] | “++” (≥20% = ++)
31 | 132 (LLVEQPPLAGV; listed as Homo sapiens) [compound 132] | “+++” (≥50 = +++)
32 | 136 (YLADPSNLFVV; listed as Homo sapiens) [compound 136] | “+++” (≥50 = +++)
33 | 137 (TLVLTLPTV; listed as Homo sapiens) [compound 137] | “++++” (≥75% = ++++)
34 | 138 (YQYPRAILSV; listed as Homo sapiens) [compound 138] | “+++” (≥50 = +++)
35 | 139 (SVMEVNSGIYRV; listed as Homo sapiens) [compound 139] | “+++” (≥50 = +++)
36 | 142 (FLFATPVFI; listed as Homo sapiens) [compound 142] | “+++” (≥50 = +++)
37 | 144 (YIMEPSIFNTL; listed as Homo sapiens) [compound 144] | “+++” (≥50 = +++)
38 | 146 (SLATAGDGLIEL; listed as Homo sapiens) [compound 146] | “++” (≥20% = ++)
39 | 149 (NLLELFVQL; listed as Homo sapiens) [compound 149] | “+++” (≥50 = +++)
40 | 151 (KILQQLVTL; listed as Homo sapiens) [compound 151] | “+++” (≥50 = +++)
41 | 154 (ALDDGTPAL; listed as Homo sapiens) [compound 154] | “++” (≥20% = ++)
42 | 155 (RVANLHFPSV; listed as Homo sapiens) [compound 155] | “+++” (≥50 = +++)
43 | 157 (SLNDEVPEV; listed as Homo sapiens) [compound 157] | “++” (≥20% = ++)
44 | 158 (KLFDVDEDGYI; listed as Homo sapiens) [compound 158] | “+++” (≥50 = +++)
45 | 159 (GLVGNPLPSV; listed as Homo sapiens) [compound 159] | “++++” (≥75% = ++++)

Continued, values first:

Row | Peptide exchange | Substance
46 | “+++” (≥50 = +++) | 83 (ILAPTVMMI; listed as Homo sapiens) [compound 83]
47 | “+++” (≥50 = +++) | 86 (NLIGKIENV; listed as Homo sapiens) [compound 86]
48 | “+++” (≥50 = +++) | 88 (FLLVGDLMAV; listed as Homo sapiens) [compound 88]
49 | “++++” (≥75% = ++++) | 89 (YILPTETIYV; listed as Homo sapiens) [compound 89]
50 | “++” (≥20% = ++) | 94 (YLIDIKTIAI; listed as Homo sapiens) [compound 94]
51 | “+++” (≥50 = +++) | 97 (SLINGSFLV; listed as Homo sapiens) [compound 97]
52 | “++” (≥20% = ++) | 99 (ALVSKGLATV; listed as Homo sapiens) [compound 99]
53 | “++++” (≥75% = ++++) | 100 (YLLSTNAQL; listed as Homo sapiens) [compound 100]
54 | “+++” (≥50 = +++) | 101 (ILVGGGALATV; listed as Homo sapiens) [compound 101]
55 | “+++” (≥50 = +++) | 102 (YLFESEGLVL; listed as Homo sapiens) [compound 102]
56 | “+++” (≥50 = +++) | 103 (TLAEEVVAL; listed as Homo sapiens) [compound 103]
57 | “+++” (≥50 = +++) | 106 (LLYDAVHIVSV; listed as Homo sapiens) [compound 106]
58 | “++++” (≥75% = ++++) | 108 (ALFPGVALLLA; listed as Homo sapiens) [compound 108]
59 | “+” (≥10% = +) | 116 (YHIDEEVGF; listed as Homo sapiens) [compound 116]
60 | “++++” (≥75% = ++++) | 119 (FLYIGDIVSL; listed as Homo sapiens) [compound 119]
61 | “++” (≥20% = ++) | 121 (GVVDPRAISVL; listed as Homo sapiens) [compound 121]
62 | “+++” (≥50 = +++) | 123 (NLWDLTDASVV; listed as Homo sapiens) [compound 123]
63 | “+++” (≥50 = +++) | 125 (VQIHQVAQV; listed as Homo sapiens) [compound 125]
64 | “++” (≥20% = ++) | 133 (KVLSNIHTV; listed as Homo sapiens) [compound 133]
65 | “+++” (≥50 = +++) | 134 (YLQELIFSV; listed as Homo sapiens) [compound 134]
66 | “+++” (≥50 = +++) | 135 (ALSEVDFQL; listed as Homo sapiens) [compound 135]
67 | “++” (≥20% = ++) | 140 (YMDAPKAAL; listed as Homo sapiens) [compound 140]
68 | “++” (≥20% = ++) | 145 (FLATSGTLAGI; listed as Homo sapiens) [compound 145]
69 | “+++” (≥50 = +++) | 147 (SLLEAVSFL; listed as Homo sapiens) [compound 147]
70 | “++” (≥20% = ++) | 148 (ALNPEIVSV; listed as Homo sapiens) [compound 148]
71 | “+++” (≥50 = +++) | 152 (ILFEDIFDV; listed as Homo sapiens) [compound 152]
72 | “+” (≥10% = +) | 153 (FLIANVLYL; listed as Homo sapiens) [compound 153]
